This data set has as its system Ae. aegypti adult females, RJ strain. The data set is described as follows: dsRNA treatment of larvae followed by pyrethroid (deltamethrin) adulticide bottle bioassay. As to conditions: soaking 0.1 μg/μL 24 hours plus 4 feedings with food-containing dsRNA, deltamethrin 0.5 μg/bottle. In kind it is in vivo, Aedes aegypti. As to the method:
Third instar larvae were treated (in groups of 100 larvae) in a final volume of 3 mL of dsRNA solution in autoclaved water (0.5 μg/μL for sodium channel (AAEL008297), PgP (AAEL010379) and Ago3 (AAEL007823) dsRNA, or 0.1 μg/μL for CYP9J26 (JF924909.1). The control group was kept in 3 ml sterile water only. Larvae were soaked in the dsRNA solutions for 24 hr at 27° C., and then transferred into new containers (300 larvae/1500 mL of chlorine-free tap water), which were also maintained at 27° C., and were provided 6 mg/100 mL lab dog/cat diet (Purina Mills) suspended in water as a source of food on a daily basis. As pupae developed, they were transferred to individual vials to await eclosion and sex sorting. For bioassays purpose only females up to five days old were used. See FIG. 11 for detailed explanation of this experiment.
After soaking in the dsRNA solutions for 24 hr at 27° C., the larvae were transferred into new containers (300 larvae/1500 mL of chlorine-free tap water), and were provided agarose cubes containing 300 μg of dsRNA once a day for a total of four days. The larvae were reared until adult stage. […]
Bottles were prepared following the Brogdon and McAllister (1998) protocol [Brogdon and McAllister (1998) Emerg Infect Dis 4:605-613]. […] At 15, 30 and 45 min intervals, the number of live and dead mosquitoes in each bottle was recorded. […]

B1: CYP9J26 dsRNA: dsRNA targeting Cytochrome p450 (CYP9J26) JF924909.1, SEQ ID NO: 203 (nucleic acid)
chain: CTTCAACGACTTCGTCCGATCAATTTACAACAAATATCCTGGAGTGAAGGTTTTCGGAATGTTCGAGACGATCACGCCGTTCTTCGTGATTCGCGATCCGGAGTTGATCAAGCAGATCGGCATCAAGGATTTCGATCACTTCGTTGACCACCGTCCGACGTTCGGACTGGACGATGAAACGGCGGAGCATCCGAAGGCGCTGTTCCGCAAGACGCTGTTCTCGATGACCGGTCAACGGTGGAAGGAGATGCGCGCTACGCTGAGTCCGGCTTTTACCGGCAGTAAGATGCGACAGATGTTCTCGCTGATGAGCGAATGCTGCGACGAAATGATGAAGCACTACCTGGACAAGGCGAAGGGCACGGGAAGGGTGGAAGTCGAAATGAAGGACTTGCTGAGTCGAATCACTATCAATGTGATTGCGTCGTGTGCTTTTGGAATCAAGGTGGAC
modifications: double stranded RNA
Regarding B1, the “susceptibility of adult mosquitoes to deltamethrin (FIG. 18)” value is reported as “more sensitive to deltamethrin during the first 15 minutes”. For the same molecule, the “susceptibility of adult mosquitoes to deltamethrin (FIG. 18)” value (listed as CYP9J29 dsRNA) was “affects the susceptibility”.

The values are drawn from patent publication US20170051285A1, “COMPOSITIONS AND METHODS OF USING SAME FOR REDUCING RESISTANCE TO MOSQUITO LARVICIDES” (priority 2014, published 2017).
